According to patent US12065466B2, “Methods and compositions for protein sequencing” (Quantum-Si Incorporated, priority 2020, dated 2024):
Numbering of substitutions follows the chain as printed. Where two headings read alike, the source gives them in different places.

B1: PS395: ClpS protein, SEQ ID NO: 23 (protein)
chain: MTVSQSKTQGAPAAQSATELEYEGLWRVVVLNDPVNLMSYVVLVFKKVFGFDETTARKHMLEVHEQGRSVVWSGMREKAEAYAFTLQQWHLTTVLEQDEVR
B2: Saccharomyces cerevisiae GID10: SEQ ID NO: 125 (protein, listed as Saccharomyces cerevisiae)
chain: MTSLNIMGRKFILERAKRNDNIEEIYTSAYVSLPSSTDTRLPHFKAKEEDCDVYEEGTNLVGKNAKYTYRSLGRHLDFLRPGLRFGGSQSSKYTYYTVEVKIDTVNLPLYKDSRSLDPHVTGTFTIKNLTPVLDKVVTLFEGYVINYNQFPLCSLHWPAEETLDPYMAQRESDCSHWKRFGHFGSDNWSLTERNFGQYNHESAEFMNQRYIYLKWKERFLLDDEEQENQMLDDNHHLEGASFEGFYYVCLDQLTGSVEGYYYHPACELFQKLELVPTNCDALNTYSSGFEIA
B3: PS501: UBR-box domain homolog, SEQ ID NO: 129 (protein, listed as Amanita thiersii)
chain: MICGQIIGKGESCFRCRDCGLDESCVMCSQCFHATDHINHNVSFFVSQQPGGCCDCGDEEAWKKPMNCPYHPP
B4: PS502: UBR-box domain homolog, SEQ ID NO: 130 (protein, listed as Helobdella robusta)
chain: MVCLKVFKLGEPTYSCRSVTCGMDPTCVLCVDCFQNSSHKLHKYKMSTSGGGGYCDCGDLEAWKADPLCDLHKL
B5: PS503: UBR-box domain homolog, SEQ ID NO: 131 (protein, listed as Hydra vulgaris)
chain: MFCGRLFKVGDPTYTCKDCAADPTCVFCHDCFHQSVHTKHKYKLFASQGRGGYCDCGDKEAWTNDPACNKHKE
B6: PS504: UBR-box domain homolog, SEQ ID NO: 132 (protein, listed as Galleria mellonella)
chain: MLCGKVFKQGEPAYSCRECGMDNTCVLCVECFKVSPHRHHKYKMGQSGGGGCCDCGDTEAWKRDPFCERHAK
B7: PS506: UBR-box domain homolog, SEQ ID NO: 134 (protein, listed as Capitella teleta)
chain: MLCGKVFKMGELTYSCRDCGTDPTCVLCMDCFQHSAHKKHRYKMAASGGGGYCDCGDREAWKAEPFCDVHKR
B8: PS507: UBR-box domain homolog, SEQ ID NO: 135 (protein, listed as Sparassis crispa)
chain: MPCGHIFKKGESCFRCKDCALDDSCVLCSKCFEATDHANHNVSFFIAQQSGGCCDCGDIEAWLVPIDCPFHPV
B9: PS508: UBR-box domain homolog, SEQ ID NO: 136 (protein)
chain: MLCGRVFKEGETVYSCRDCAIDPTCVLCIECFQKSVHKSHRYKMHASAGGGFCDCGDLEAWKTGPCCSQHDP
modifications: Anabarilius graham
B10: PS509: UBR-box domain homolog, SEQ ID NO: 137 (protein)
chain: MICGHGFKTGEPTYSCRDCATDPTCVLCISCFQKSPHREHRYKMSASGGGGYCDCGDPEAWKIEPFCEQHKP
modifications: Lottia gigantean
B11: PS510: UBR-box domain homolog, SEQ ID NO: 138 (protein, listed as Camponotus floridanus)
chain: MICGRMFKMGEPTYSCRQCGMDSTCVLCVDCFKQSAHRNHKYKMGTSSGGGCCDCGDTEAWKNEPFCKIHLA
B12: PS511: UBR-box domain homolog, SEQ ID NO: 139 (protein, listed as Habropoda laboriosa)
chain: MICGKVFKMGEATYSCKECGVDPTCVLCADCFKQSAHRHHKYRMGTSSGGGFCDCGDIEAWKKEPFCNTHLA
B13: PS512: UBR-box domain homolog, SEQ ID NO: 140 (protein, listed as Mastacembelus armatus)
chain: B9 chain with I29M, E30D, K34D, L58V, T63I, C66Y, Q69K
B14: PS513: UBR-box domain homolog, SEQ ID NO: 141 (protein, listed as Pyrenophora seminiperda)
chain: MPCGHIFKNGEATYRCKTCTADDTCVLCARCFDASDHEGHQVFVSVSPGNSGCCDCGDDEAWVRPVHCNIHSA
B15: PS514: UBR-box domain homolog, SEQ ID NO: 142 (protein, listed as Tribolium castaneum)
chain: MVCGRVFKLGEPTYSCRECGMDNTCVLCVNCFKNSEHRFHKYKMGTSQGGGCCDCGDVEAWKKAPFCDVHIA
B16: PS515: UBR-box domain homolog, SEQ ID NO: 143 (protein, listed as Wasmannia auropunctata)
chain: B11 chain with R5K, M9I, Q18E, N63K, I69T, L71V, A72V
B17: PS516: UBR-box domain homolog, SEQ ID NO: 144 (protein)
chain: MLCGKVFKTGEPTYSCRDCANDPTCVLCIDCFQNGAHKNHRYKMNTSGGGGYCDCGDQEAWTSHPFCNLHSP
modifications: Crassostrea gigas
B18: PS517: UBR-box domain homolog, SEQ ID NO: 145 (protein)
chain: MMCGRVFKMGEPTYSCRECGVDSTCVLCVGCFQQSAHRDHKYKMGTSGGGGCCDCGDTEAWKRDPFCEIHMV
modifications: Harpegnathos saltator
B19: PS518: UBR-box domain homolog, SEQ ID NO: 146 (protein, listed as Nilaparvata lugens)
chain: MVCGRVFKMGEPSYHCRECGMDATCVLCVDCFKKSSHRNHKYKMGTSIGGGCCDCGDVEAWKTEPYCEVHIA
B20: PS519: UBR-box domain homolog, SEQ ID NO: 147 (protein, listed as Manduca sexta)
chain: B6 chain with K5R, P36A, R69L, K72A
B21: PS520: UBR-box domain homolog, SEQ ID NO: 148 (protein, listed as Monopterus albus)
chain: B9 chain with I29M, E30D, K34D, A48S, L58V, T63I, Q69K
B22: PS521: UBR-box domain homolog, SEQ ID NO: 149 (protein)
chain: MLCGRVFRSGEPTYSCRDCAVDPTCVLCIDCFNNGAHRKHKYRMSTSSGGGYCDCGDKEAWKTDPLCEIHRK
modifications: Lingula anatine
B23: PS523: UBR-box domain homolog, SEQ ID NO: 151 (protein)
chain: MAKSHRHTGRNCGRAFQPGEPLYRCQECAYDDTCVLCISCFNPDDHVNHHVSTHICNELHDGICDCGDAEAWNVPLHCKAEED
modifications: Saccharomycetaceae sp. Ashbya aceri
B24: PS524: UBR-box domain homolog, SEQ ID NO: 152 (protein, listed as Drosophila ficusphila)
chain: MVCGKVFKNGEPTYSCRECGVDPTCVLCVNCFKRSAHRFHKYKMSTSGGGGCCDCGDDEAWKKDHYCQLHLA
B25: PS525: UBR-box domain homolog, SEQ ID NO: 153 (protein, listed as Mus musculus)
chain: MLCGKVFKSGETTYSCRDCAIDPTCVLCMDCFQSSVHKNHRYKMHTSTGGGFCDCGDTEAWKTGPFCVDHEP
B26: PS526: UBR-box domain homolog, SEQ ID NO: 154 (protein, listed as Maylandia zebra)
chain: B9 chain with I29M, E30D, K34D, A48S, L58V, T63I, C66Y, Q69K
B27: PS527: UBR-box domain homolog, SEQ ID NO: 155 (protein, listed as Mizuhopecten yessoensis)
chain: MLCGKVFKYGEPTYSCRDCANDPTCVLCIDCFQKSAHKKHRYKMSTSGGGGYCDCGDSEAWKTAPFCSNHKA
B28: PS529: UBR-box domain homolog, SEQ ID NO: 157 (protein)
chain: B25 chain with S9G, S34N, V36I, F66L, V68A, D69N
modifications: Chelonia mydas
B29: PS530: UBR-box domain homolog, SEQ ID NO: 158 (protein, listed as Acropora millepora)
chain: MLCGKVFKVGEPTYSCRDCGYDNTCVLCINCFQKSIHKNHHYKMNTSGGGGVCDCGDVEAWKEGEACEIHQQ
B30: PS531: UBR-box domain homolog, SEQ ID NO: 159 (protein, listed as Musca domestica)
chain: B24 chain with N9I, V21M, P23Q, R34Q, F39Y, D58E, Q68E, L69E, A72R
B31: PS532: UBR-box domain homolog, SEQ ID NO: 160 (protein, listed as Schizosaccharomyces cryophilus)
chain: MSCGRIFKKGEVFYRCKTCSVDSNSALCVKCFRATDHHGHETSFTISAGSGGCCDCGNSAAWIRDMPCKIHNR

Legend:
[1] = tested on: amino acid at a terminal position of a polypeptide; test: Amino acid binding preference of recognition proteins (Tables 1 and 2); settings: Table 1, ClpS proteins; amino acid identity at a terminal position of a polypeptide; inferred from literature and/or demonstrated by the inventors
Text: It should be appreciated that these sequences and other examples described herein are meant to be non-limiting, and recognition molecules in accordance with the application can include any homologs, variants thereof, or fragments thereof minimally containing domains or subdomains responsible for peptide recognition.

[2] = tested on: amino acid at a terminal position of a polypeptide; settings: Table 2; amino acid identity at a terminal position (phosphotyrosine also internal); inferred from literature and/or demonstrated by the inventors; cited from earlier work

| Molecule | Binding Pref. [1] | Binding Pref. [2] |
| --- | --- | --- |
| B1 | F, Y, W, L | – |
| B2 | – | P, M, V |
| B3 | – | K, R, H |
| B4 | – | K, R, H |
| B5 | – | K, R, H |
| B6 | – | K, R, H |
| B7 | – | K, R, H |
| B8 | – | K, R, H |
| B9 | – | K, R, H |
| B10 | – | K, R, H |
| B11 | – | K, R, H |
| B12 | – | K, R, H |
| B13 | – | K, R, H |
| B14 | – | K, R, H |
| B15 | – | K, R, H |
| B16 | – | K, R, H |

| Molecule | Binding Pref. [1] | Binding Pref. [2] |
| --- | --- | --- |
| B17 | – | K, R, H |
| B18 | – | K, R, H |
| B19 | – | K, R, H |
| B20 | – | K, R, H |
| B21 | – | K, R, H |
| B22 | – | K, R, H |
| B23 | – | K, R, H |
| B24 | – | K, R, H |
| B25 | – | K, R, H |
| B26 | – | K, R, H |
| B27 | – | K, R, H |
| B28 | – | K, R, H |
| B29 | – | K, R, H |
| B30 | – | K, R, H |
| B31 | – | K, R, H |
